Results on one substance are retold here after publication PMC9371678.

This experiment has as its target HA-PTH1R_(mTurquoise/mCitrine) (human) (UniProt Q03431).
Chain of UniProt Q03431 (Q03431 27-593): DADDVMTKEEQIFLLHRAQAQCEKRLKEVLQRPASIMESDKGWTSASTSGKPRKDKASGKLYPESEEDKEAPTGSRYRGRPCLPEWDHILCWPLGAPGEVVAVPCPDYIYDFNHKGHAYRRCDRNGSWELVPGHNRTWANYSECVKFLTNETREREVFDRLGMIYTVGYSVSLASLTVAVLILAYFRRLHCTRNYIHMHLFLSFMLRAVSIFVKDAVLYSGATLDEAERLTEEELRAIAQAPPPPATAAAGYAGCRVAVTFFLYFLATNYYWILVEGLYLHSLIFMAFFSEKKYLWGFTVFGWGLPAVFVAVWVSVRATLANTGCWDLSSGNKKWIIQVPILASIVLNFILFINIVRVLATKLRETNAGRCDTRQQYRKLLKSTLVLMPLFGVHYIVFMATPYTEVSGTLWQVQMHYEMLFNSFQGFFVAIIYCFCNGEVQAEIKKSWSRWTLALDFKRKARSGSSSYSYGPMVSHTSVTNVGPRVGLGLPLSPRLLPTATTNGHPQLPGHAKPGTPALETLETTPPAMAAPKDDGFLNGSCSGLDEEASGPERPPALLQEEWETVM

With “parathyroid hormone PTH (1–34) (peptide)”, the pEC50 of the PTH-induced FRET change of the PTH1R (FRET) conformational biosensor (plate reader, HEK293 cells), with RAMP2 (SNAP) coexpressed (1 µg cDNA) is 8.59 and the pEC50 of the PTH-induced FRET change of the PTH1R (FRET) conformational biosensor (plate reader, HEK293 cells), without RAMP2 was 8.73.
